{
  "source": "patent US20260242478A1",
  "about": "(published 2026)",
  "binders": {"B1": {"name": "anti-CD28 Fab (Fab, V domains shown)", "VH": "QVQLVQSGAEVKKPGASVKVSCKASGYTFTSYYIHWVRQAPGQGLEWIGSIYPGNVNTNYNEKFKDRATLTVDTSISTAYMELSRLRSDDTAVYFCTRSHYGLDWNFDVWGQGTTVTVSS", "VL": "not shown"}},
  "key": {"Peptide-121": {"molecular_target": "T1, Peptide-121", "T1 peptide": "YCEGHAPEYIAKCL", "assay": "BLI (Octet), biotinylated peptide on sensor, Fab in solution"}, "Peptide-126": {"molecular_target": "T2, Peptide-126", "T2 peptide": "YCEGHLPEYREKCL", "assay": "BLI (Octet), biotinylated peptide on sensor, Fab in solution"}, "Peptide-132": {"molecular_target": "T3, Peptide-132", "T3 peptide": "YCEGHLPEYRNKCL", "assay": "BLI (Octet), biotinylated peptide on sensor, Fab in solution"}, "Peptide-134 [1]": {"molecular_target": "T4, Peptide-134", "T4 peptide": "YCEGHLPEYIQKCL", "assay": "BLI (Octet), biotinylated peptide on sensor, Fab in solution"}, "Peptide-120": {"molecular_target": "T5, Peptide-120", "T5 peptide": "YCEGHLPEYIEKCL", "assay": "BLI (Octet), biotinylated peptide on sensor, Fab in solution"}, "Peptide-135": {"molecular_target": "T6, Peptide-135", "T6 peptide": "YCEGHLPEYIWKCL", "assay": "BLI (Octet), biotinylated peptide on sensor, Fab in solution"}, "Peptide-127": {"molecular_target": "T7, Peptide-127", "T7 peptide": "YCEGHLPEYLAKCL", "assay": "BLI (Octet), biotinylated peptide on sensor, Fab in solution"}, "Peptide-87": {"molecular_target": "T8, Peptide-87", "T8 peptide": "YCAGHAWQYINKCL", "assay": "BLI (Octet), biotinylated peptide on sensor, Fab in solution"}, "Peptide-118": {"molecular_target": "T9, Peptide-118", "T9 peptide": "YCEGHRPEYILKCL", "assay": "binding ELISA, biotinylated peptide on neutravidin plate, Fab titrated"}, "Peptide-133": {"molecular_target": "T10, Peptide-133", "T10 peptide": "YCEGHLPEYLEKCV", "assay": "binding ELISA, biotinylated peptide on neutravidin plate, Fab titrated"}, "Peptide-134 [2]": {"molecular_target": "T4, Peptide-134", "assay": "binding ELISA, biotinylated peptide on neutravidin plate, Fab titrated"}, "Peptide-122": {"molecular_target": "T11, Peptide-122", "T11 peptide": "YCEGHAPEYIRKCL", "assay": "binding ELISA, biotinylated peptide on neutravidin plate, Fab titrated"}},
  "data": [
    {"binder": "B1", "values": [
      {"measurement": "Off rate t½", "setting": "Peptide-121", "value": 24, "unit": "s"},
      {"measurement": "Off rate t½", "setting": "Peptide-126", "value": 36, "unit": "s"},
      {"measurement": "Off rate t½", "setting": "Peptide-132", "value": 48, "unit": "s"},
      {"measurement": "Off rate t½", "setting": "Peptide-134 [1]", "value": 54, "unit": "s"},
      {"measurement": "Off rate t½", "setting": "Peptide-120", "value": 30, "unit": "s"},
      {"measurement": "Off rate t½", "setting": "Peptide-135", "value": 54, "unit": "s"},
      {"measurement": "Off rate t½", "setting": "Peptide-127", "value": 60, "unit": "s"},
      {"measurement": "Off rate t½", "setting": "Peptide-87", "value": 42, "unit": "s"},
      {"measurement": "EC50", "setting": "Peptide-118", "value": 65.8, "unit": "nM"},
      {"measurement": "EC50", "setting": "Peptide-133", "value": 32.5, "unit": "nM"},
      {"measurement": "EC50", "setting": "Peptide-134 [2]", "value": 1.3, "unit": "nM"},
      {"measurement": "EC50", "setting": "Peptide-122", "value": 7.8, "unit": "nM"}
    ]}
  ]
}
